The assay deals with His-tagged Sam68 (Src-associated in mitosis, 68 kDa) (human (cDNA from HEK293T cells), UniProt Q07666 1-443). In words: ELISA.

Our source for the Kd values is publication PMC3379994 (2012).

His-tagged Sam68 (Src-associated in mitosis, 68 kDa), sequence (Q07666 whole entry): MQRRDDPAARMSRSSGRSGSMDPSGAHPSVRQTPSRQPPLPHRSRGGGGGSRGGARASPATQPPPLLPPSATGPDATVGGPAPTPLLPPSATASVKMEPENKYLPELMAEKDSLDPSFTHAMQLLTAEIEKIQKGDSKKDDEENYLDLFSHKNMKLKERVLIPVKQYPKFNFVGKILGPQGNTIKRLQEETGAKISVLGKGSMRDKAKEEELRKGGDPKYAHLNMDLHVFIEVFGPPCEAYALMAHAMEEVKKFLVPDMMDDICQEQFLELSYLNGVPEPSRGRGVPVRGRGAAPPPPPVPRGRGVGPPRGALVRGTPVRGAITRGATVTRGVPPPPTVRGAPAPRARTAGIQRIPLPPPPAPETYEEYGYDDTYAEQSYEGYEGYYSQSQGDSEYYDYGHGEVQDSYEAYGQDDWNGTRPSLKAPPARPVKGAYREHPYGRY

B1: SH3 domain from Fyn, displayed on M13 phage (domain or fragment)
chain: not shown
As for B1, the dissociation constant (Kd) (in general, the free concentration of one partner at which half of the binding sites on the other are occupied at equilibrium, for simple one-to-one binding) is 41 nM. That is a double-digit nanomolar value.

B2: SH3 domain from Yes, displayed on M13 phage (domain or fragment)
chain: not shown
B2 had a Kd of 5.5 nM.

B3: SH3 domain from p85α, displayed on M13 phage (domain or fragment)
chain: AEGYQYRALYDYKKEREEDIDLHLGDILTVNKGSLVALGFSDGQEARPEEIGWLNGYNETTGERGDFPGTYVEYIGR
In the case of B3, the equilibrium dissociation constant (Kd) was found to be 13 nM.

B4: SH3 domain #3 from Intersectin 2, displayed on M13 phage (domain or fragment)
chain: SVGEEYIALYPYSSVEPGDLTFTEGEEILVTQKDGEWWTGSIGDRSGIFPSNYVKPKDQ
In the case of B4, the Kd is 59 nM. Against the preceding molecule, the Kd is about 4.5-fold higher.

B5: SH3 domain from Hck, displayed on M13 phage (domain or fragment)
chain: not shown
The molecule B5 gave a Kd of 31 nM.

B6: SH3 domain from Osteoclast stimulating factor 1, displayed on M13 phage (domain or fragment)
chain: GQVKVFRALYTFEPRTPDELYFEEGDIIYITDMSDTNWWKGTSKGRTGLIPSNYVAEQAE
B6: the Kd came out at 22 nM.

B7: SH3 domain from Lyn, displayed on M13 phage (domain or fragment)
chain: EQGDIVVALYPYDGIHPDDLSFKKGEKMKVLEEHGEWWKAKSLLTKKEGFIPSNYVAKLNT
B7 registered an equilibrium dissociation constant (Kd) of 7.9 nM.

B8: SH3 domain #2 from Nck1, displayed on M13 phage (domain or fragment)
chain: DLNMPAYVKFNYMAEREDELSLIKGTKVIVMEKCSDGWWRGSYNGQVGWFPSNYVTEEGD
B8 registered an equilibrium dissociation constant (Kd) of 31 nM.
